{"source": "patent US8440788B2", "about": "“N-terminal VDAC variants and uses thereof” (Ben-Gurion University of The Negev Research and Development …, priority 2006, dated 2013)", "molecules": {"B1": {"name": "Δ(1-26)mVDAC1: N-terminal truncated mouse VDAC1 polypeptide lacking amino acids 1-26 (protein)", "chain": "IKLDLKTKSENGLEFTSSGSANTETTKVNGSLETKYRWTEYGLTFTEKWNTDNTLGTEITVEDQLARGLKLTFDSSFSPNTGKKNAKIKTGYKREHINLGCDVDFDIAGPSIRGALVLGYEGWLAGYQMNFETSKSRVTQSNFAVGYKTDEFQLHTNVNDGTEFGGSIYQKVNKKLETAVNLAWTAGNSNTRFGIAAKYQVDPDACFSAKVNNSSLIGLGYTQTLKPGIKLTLSALLDGKNVNAGGHKLGLGLEFQA"}}, "key": {"[1]": {"system": "hVDAC1-shRNA-T-REx-293 cells", "test": "Apoptosis induced by various stimuli in cells expressing native or truncated mVDAC1", "assay_type": "cell-based, human", "settings": "for cell death in cells expressing native mVDAC1: hVDAC1-shRNA-T-REx-293 cells expressing mVDAC1", "experimental": "(§1) Apoptotic cell death was analyzed by Acridine Orange/Ethidium Bromide staining.\n(§2) T-REx-293 cells correspond to a transformed primary human embryonal kidney cell line, expressing the tetracycline repressor. hVDAC1-shRNA T-REx-293 cells stably expressing the pSUPERretro plasmid encoding shRNA targeting hVDAC1 were obtained and grown as described previously (Abu-Hamad et al. (2006), supra). […] Cell viability was analyzed by staining with acridine orange and ethidium bromide in PBS (Zaid et al. (2005). Cell death and differentiation, 12, 751-760). Images were recorded using Zeiss LSM510 confocal or Olympus IX51 fluorescence microscopes. Mitochondria preparation and measurements of ATP levels and Ca^+ accumulation were carried out as previously described (Abu-Hamad et al. (2006), supra)."}, "[2]": {"biological_target": "T1, HK-I (Rattus norvegicus, UniProt P05708)", "T1 construct": "Purified rat brain HK-I; from tissue; host or cells: rat brain", "T1 sequence (P05708 1-918)": "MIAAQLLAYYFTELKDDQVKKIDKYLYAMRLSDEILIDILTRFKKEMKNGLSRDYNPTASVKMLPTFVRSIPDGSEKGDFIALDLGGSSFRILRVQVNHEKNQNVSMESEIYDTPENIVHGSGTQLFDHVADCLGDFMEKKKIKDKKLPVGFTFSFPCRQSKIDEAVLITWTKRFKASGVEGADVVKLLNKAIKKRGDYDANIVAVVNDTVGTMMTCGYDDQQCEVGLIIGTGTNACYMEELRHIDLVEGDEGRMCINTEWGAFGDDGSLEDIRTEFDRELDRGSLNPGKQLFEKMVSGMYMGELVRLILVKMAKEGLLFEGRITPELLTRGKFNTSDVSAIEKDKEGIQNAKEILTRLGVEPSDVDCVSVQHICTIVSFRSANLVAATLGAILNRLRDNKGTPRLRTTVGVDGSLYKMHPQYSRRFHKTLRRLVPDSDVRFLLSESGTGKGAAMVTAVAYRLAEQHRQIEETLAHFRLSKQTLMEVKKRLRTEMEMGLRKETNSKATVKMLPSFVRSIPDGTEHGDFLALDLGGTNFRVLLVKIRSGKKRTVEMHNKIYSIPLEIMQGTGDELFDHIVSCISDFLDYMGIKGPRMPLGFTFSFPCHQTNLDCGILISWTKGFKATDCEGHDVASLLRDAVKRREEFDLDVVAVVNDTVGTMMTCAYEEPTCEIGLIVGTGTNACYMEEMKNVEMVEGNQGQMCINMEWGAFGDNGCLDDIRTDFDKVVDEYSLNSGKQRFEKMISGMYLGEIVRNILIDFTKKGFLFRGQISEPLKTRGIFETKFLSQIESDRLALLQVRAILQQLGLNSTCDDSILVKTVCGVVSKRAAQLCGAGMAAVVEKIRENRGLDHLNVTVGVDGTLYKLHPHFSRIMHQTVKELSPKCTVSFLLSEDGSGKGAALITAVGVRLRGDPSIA", "test": "Real time surface plasmon resonance, immobilized HK-I", "assay_type": "binding", "settings": "SPR, increasing peptide concentrations", "experimental": "(§3) Surface plasmon resonance (SPR) using the ProteOn-XPR36 (Bio-Rad, USA) system was employed to study the interaction of VDAC1 N-terminal peptides with purified HK-I and Bcl2. Purified rat brain HK-I, recombinant Bcl2 and rabbit IgG were immobilized on a CM5 sensor surface according to the manufacture's instructions. N-terminal VDAC1 peptides were diluted in running buffer (150 mM NaCl, 0.005% Tween-20, 4% (V/V) DMSO, 10 mM PBS, pH, 7.4) and injected onto the sensor chip at varying concentrations at a flow rate of 40 μl/min at 25° C."}, "[3]": {"biological_target": "Bcl2 (Homo sapiens, UniProt P10415)", "sequence (P10415 whole entry, species assumed)": "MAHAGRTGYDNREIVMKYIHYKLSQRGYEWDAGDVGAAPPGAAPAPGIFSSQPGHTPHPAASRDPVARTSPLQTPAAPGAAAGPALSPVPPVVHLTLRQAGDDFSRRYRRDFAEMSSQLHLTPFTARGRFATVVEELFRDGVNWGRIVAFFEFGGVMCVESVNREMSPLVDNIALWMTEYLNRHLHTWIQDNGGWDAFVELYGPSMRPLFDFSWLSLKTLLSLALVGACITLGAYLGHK", "test": "Real time surface plasmon resonance, immobilized Bcl2", "assay_type": "binding", "settings": "SPR, increasing peptide concentrations", "experimental": "as §3"}, "[4]": {"system": "IgG", "test": "Real time surface plasmon resonance, immobilized IgG (control)", "assay_type": "binding, rabbit", "settings": "SPR control", "experimental": "as §3"}, "[5]": {"system": "hVDAC1-shRNA-T-REx-293 cells", "test": "Restoration of cell growth in T-REx-293 cells silenced for hVDAC1", "assay_type": "cell-based, human", "settings": "expression under tetracycline control; Trypan-Blue counting", "experimental": "as §2"}, "[6]": {"test": "Channel conductance of purified VDAC reconstituted into planar lipid bilayer", "assay_type": "biochemical", "experimental": "(§4) Briefly, PLB were prepared from soybean asolectin dissolved in n-decane (50 mg/ml) in a chamber containing 10 mM Hepes/KOH, pH 7.4 and 0.5 or 1M NaCl (cis/trans). Only PLBs with a resistance greater than 100 GΩ were used. Purified VDAC (about 1 ng) was added to the chamber defined as the cis side. After insertion of one or more channels into the PLB, excess protein was removed by perfusion of the cis chamber with 20 volumes of a same solution. Currents were recorded under voltage-clamp mode using a Bilayer Clamp amplifier (Warner Instruments, Hamden, Conn.). Currents were measured with respect to the trans side of the membrane (ground). The currents were low-pass filtered at 1 kHz, using a Bessal filter (Frequency Devices, Haverhill, Mass.) and digitized on-line using a Digidata 1200 interface board and pCLAMP 6 software (Axon Instruments). Sigma Plot 2000 scientific software was used for data analyses. Experiments were performed at 23-25° C."}, "[7]": {"system": "T-REx-293 cells silenced for hVDAC1 expression", "test": "Cell death triggered by tetracycline-induced over-expression", "assay_type": "cell-based, human", "settings": "over-expression induced by 2.5 μg/ml tetracycline", "experimental": "as §1, §2"}, "[8]": {"system": "hVDAC1-shRNA T-REx-293 cells", "test": "Cytochrome c release induced by staurosporine (STS)", "assay_type": "cell-based, human", "settings": "STS (1.25 μM) for 5 h; Western blotting", "procedure": "Seventy-two hours later, cells were exposed to STS (1.25 μM) for 5 h. Cells were harvested, washed twice with PBS, incubated on ice for 1 h in extraction buffer (200 mM manitol, 70 mM sucrose, 1 mM EGTA, 1 mM EDTA, 10 μg/ml leupeptine, 1 mM PMSF, 1 mg/ml BSA, 10 mM HEPES, pH 7.5) and then lysed with a Dounce homogenizer by 25 strokes. Homogenates were centrifuged (1000×g) at 4° C. for 10 min and the supernatants were re-centrifuged at 15,000×g for 30 min at 4° C. Aliquots (10 μl) of the resultant supernatants, designated as the cytosolic fraction, were immediately boiled in SDS-PAGE sample buffer and resolved by SDS-PAGE on Tris-Tricine gels (13% polyacrylamide) and immunoblotted using monoclonal anti-cytochrome c antibodies. To rule out mitochondrial contamination of the cytosolic fraction, the presence of VDAC was tested by immunoblotting. Although supernatants from the different treated cultures were derived from equal number of cells, protein concentration in the total cells lysates were estimated as well as, actin levels were analyzed by immunoblotting using anti-actin antibodies."}, "[9]": {"biological_target": "T1, HK-I", "test": "Effect of HK-I on channel activity of bilayer-reconstituted VDAC1", "assay_type": "biochemical", "settings": "HK-I (28 mU/ml), voltage step 0 to +40 mV", "experimental": "as §4"}}}
{"molecule": "O=[As]O[As]=O", "note": "(stereo not shown) [As2O3]", "values": [{"measurement": "cell death in cells expressing native mVDAC1", "setting": "[1]", "result": "induced death"}]}
{"molecule": "CN[C@@H]1C[C@H]2O[C@@](C)([C@@H]1OC)n1c3ccccc3c3c4c(c5c6ccccc6n2c5c31)C(=O)NC4", "note": "[Staurosporine]", "values": [{"measurement": "cell death in cells expressing native mVDAC1", "setting": "[1]", "result": "induced death"}]}
{"molecule": "LP3: VDAC1-based peptide representing a loop (E157 to T174, 18 amino acids) predicted to face the intermembranal space (ETAKSRVTQSNFAVGYKT)", "values": [{"measurement": "binding to immobilized HK-I", "setting": "[2]", "result": "did not interact"}, {"measurement": "binding to immobilized Bcl2", "setting": "[3]", "result": "did not interact"}]}
{"molecule": "COc1cc(/C=C/C(=O)CC(=O)/C=C/c2ccc(O)c(OC)c2)ccc1O", "note": "[curcumin]", "values": [{"measurement": "cell death in cells expressing native mVDAC1", "setting": "[1]", "result": "induced death"}]}
{"molecule": "VDAC1 N-terminal peptide: a peptide corresponding to the N-terminal region of VDAC1 (MAVPPTYADLGKSARDVFTKGYGFGL)", "values": [{"measurement": "binding to immobilized HK-I", "setting": "[2]", "result": "strongly bound"}, {"measurement": "binding to immobilized Bcl2", "setting": "[3]", "result": "strongly bound"}, {"measurement": "binding to IgG-immobilized chip", "setting": "[4]", "result": "no signal"}]}
{"molecule": "B1", "values": [{"measurement": "cell growth in cells silenced for hVDAC1", "setting": "[5]", "result": "restored cell growth"}, {"measurement": "maximal conductance", "setting": "[6]; at 1M NaCl", "result": 4, "unit": "nS"}, {"measurement": "voltage dependence of conductance", "setting": "[6]; planar lipid bilayer, FIG. 4", "result": "no voltage dependence"}, {"measurement": "cell death on over-expression", "setting": "[7]", "result": "continue to grow over 8 days"}, {"measurement": "apoptotic cell death", "setting": "[7]; over 8 days", "result": "5-8%"}, {"measurement": "sensitivity of expressing cells to induced apoptosis", "setting": "[1]; curcumin (100 μM), As2O3 (60 μM) or STS (1.25 μM)", "result": "resistant"}, {"measurement": "cytochrome c release into the cytosol", "setting": "[8]", "result": "no cytochrome c release"}, {"measurement": "effect of HK-I on channel activity", "setting": "[9]", "result": "no effect"}]}
